{
  "source": "patent US20160068835A1",
  "about": "“FLEXIBLE DISPLAY METHOD” (PEPTIDREAM INC., priority 2013, published 2016)",
  "molecules": {"B1": {"name": "Shuffled p2, displayed as An21-type complex (peptide)", "peptide": "[ClAB‑L‑Phe]DQSPWWWIAFCGGGGGS", "modifications": "thioether (positions not given here); not fully specified (C-terminus, bridges); also: C-terminal Pu-linker annealed to its mRNA/cDNA (display complex)", "notes": "also called No41ran"}, "B2": {"name": "p1: XTYNERLFWC (X is ClAB-L-Phe), chemically synthesized cyclic peptide (peptide)", "peptide": "[ClAB‑L‑Phe]TYNERLFWC", "modifications": "thioether (positions not given here); not fully specified (bridges)", "notes": "Made by Fmoc solid phase synthesis for the BLI assay; also called compound p1"}, "B3": {"name": "Shuffled p1, displayed as An21-type complex (peptide)", "peptide": "[ClAB‑L‑Phe]RFETLNWYCGGGGGS-{puromycin-An21 Pu‑linker}", "modifications": "thioether (positions not given here); not fully specified (bridges); reading uncertain; also: C-terminal Pu-linker annealed to its mRNA/cDNA (display complex)", "notes": "also called No38ran"}, "B4": {"name": "p2: XSQWDPWAIFWC (X is ClAB-L-Phe), chemically synthesized cyclic peptide (peptide)", "peptide": "[ClAB‑L‑Phe]SQWDPWAIFWC", "modifications": "thioether (positions not given here); not fully specified (bridges)", "notes": "Made by Fmoc solid phase synthesis for the BLI assay; also called compound p2"}, "B5": {"name": "Reversed p1, displayed as An21-type complex (peptide)", "peptide": "[ClAB‑L‑Phe]WFLRENYTCGGGGGS-{puromycin-An21 Pu‑linker}", "modifications": "thioether (positions not given here); not fully specified (bridges); reading uncertain; also: Pu-linker annealed to its mRNA/cDNA (display complex)", "notes": "also called No38rev"}, "B6": {"name": "Reversed p2, displayed as An21-type complex (peptide)", "peptide": "[ClAB‑L‑Phe]WFIAWPDWQSCGGGGGS", "modifications": "thioether (positions not given here); not fully specified (C-terminus, bridges); also: Pu-linker annealed to its mRNA/cDNA (display complex)", "notes": "also called No41rev"}},
  "key": {"[1]": {"target": "T1, human serum albumin (HSA) (Homo sapiens, UniProt P02768)", "assay": "Pull-down of peptides displayed as An21-type complexes with HSA-immobilized SA beads, recovered cDNA quantified by real-time PCR", "assay_type": "binding", "details": "An21-type display complexes; HSA-immobilized SA beads vs SA beads free of HSA; FIG. 5e", "description": "Derivative peptides having reverse and shuffled sequences of the selected peptides (p1 and p2) and the original peptide were prepared as the An21-type complexes. […] Furthermore, since the bonding activity to HSA is lost when the amino acid sequence of the obtained cyclic peptide is reconfigured (reversed or shuffled), it could be seen that the bond of peptide to HSA is sequence-dependent (FIG. 5e).\nmRNAs of p1 and p2 were synthesized from the colony PCR product. The reverse or shuffled sequences of the mRNAs of the p1 and p2 peptides were prepared as follows. The DNA template was prepared using T7SD8M2.F44 as the forward primer, and SD8No38revG5S4.R69, SD8No38ranG5S4.R69, SD8No41revG5S4.R75 or SD8No41ranG5S4.R75 as the reverse primer. An elongation PCR and transcription were performed by a method similar to the method used in preparation of T7-mRNA. mRNA was purified by phenol/chloroform extraction and 2-propanole precipitation, and dissolved in ultrapure water.\nTranslation (2 μL), reverse transcription (4 μL), and the quenching reaction (5.25 μL) were performed by the above method.\n2 μL of the obtained solution was mixed with HSA immobilized SA beads (0.3 pmol HSA) or SA-beads. After incubation at room temperature for 10 min., the beads were washed three times with 10 μL of HBST. […] The recovered cDNA was quantified with real-time PCR."}, "[2]": {"target": "T1, human serum albumin (HSA)", "assay": "Bonding assay of chemically synthesized peptides by Bio-Layer Interferometry (BLI method)", "assay_type": "binding", "details": "50 mM Hepes-KOH pH 7.5, 300 mM NaCl, 0.05% Tween20, 0.001% DMSO, 30° C.; peptide 1-16 nM; FIG. 8", "description": "(§1) Next, these peptides were chemically synthesized by Fmoc solid phase synthesis, and the bond to HSA was assessed using the Bio-Layer Interferometry method (BLI method). A bonding assay was performed under the condition of 50 mM Hepes-KOH pH 7.5, 300 mM NaCl, 0.05% Tween20 and 0.001% DMSO at 30° C. Each step of the assay consists of the bond reaction of peptide to HSA being 500 s, and the dissociation reaction being 500 s. The peptide solution was created by the following dilution series (p1: 16, 12, 8, 2, 1 nM, and p2: 16, 12, 8, 4 nM)."}, "[3]": {"target": "T2, human serum albumin (human, UniProt P02768 25-609)", "T2 construct": "also called HSA", "assay": "pull-down of the An21-type display complex on HSA-immobilized SA beads, recovered cDNA quantified by real-time PCR", "description": "Derivative peptides having reverse and shuffled sequences of the selected peptides (p1 and p2) and the original peptide were prepared as the An21-type complexes. The obtained complexes were subjected to pull-down using the HSA-immobilized SA beads and the SA beads free of HSA, and the recovered cDNA was quantified, which provided the result that p1 and p2 actually bond with HSA (FIG. 5e). Furthermore, since the bonding activity to HSA is lost when the amino acid sequence of the obtained cyclic peptide is reconfigured (reversed or shuffled), it could be seen that the bond of peptide to HSA is sequence-dependent (FIG. 5e)."}, "[4]": {"target": "T2, human serum albumin", "assay": "Bio-Layer Interferometry (BLI), synthetic peptide at 16, 12, 8, 2, 1 nM, 30 C", "description": "as §1"}, "[5]": {"target": "T2, human serum albumin", "assay": "Bio-Layer Interferometry (BLI), synthetic peptide at 16, 12, 8, 4 nM, 30 C", "description": "as §1"}},
  "note": "Where no end group is shown, it is not given here. [ ]: non-standard residue; d: D form. The star is where a group is joined. ClAB‑L‑Phe = N-[3-(2-chloroacetamido)benzoyl]-L-phenylalanine, O=C(CCl)Nc1cccc(C(=O)N[C@@H](Cc2ccccc2)C(=O)*)c1; puromycin = COc1ccc(C[C@H](N*)C(=O)N[C@H]2[C@@H](O)[C@H](n3cnc4c(N(C)C)ncnc43)O[C@@H]2CO)cc1; An21 Pu‑linker = not defined here",
  "data": [
    {"molecule": "XTYNERLFWC ([ClAB‑L‑Phe]TYNERLFWC; thioether (positions not given here); not fully specified (bridges)) [p1, X is ClAB-L-Phe, cyclized by thioether bond with Cys]", "values": [
      {"measurement": "bond with HSA (recovered cDNA after pull-down)", "setting": "[1]", "value": "actually bond with HSA"},
      {"measurement": "bond to HSA (BLI binding curve)", "setting": "[2]", "value": "bond to HSA"}
    ]},
    {"molecule": "XSQWDPWAIFWC ([ClAB‑L‑Phe]SQWDPWAIFWC; thioether (positions not given here); not fully specified (bridges)) [p2, X is ClAB-L-Phe, cyclized by thioether bond with Cys]", "values": [
      {"measurement": "bond with HSA (recovered cDNA after pull-down)", "setting": "[1]", "value": "actually bond with HSA"},
      {"measurement": "bond to HSA (BLI binding curve)", "setting": "[2]", "value": "bond to HSA"}
    ]},
    {"molecule": "B1", "values": [
      {"measurement": "binding result", "setting": "[3]", "value": "no binding"}
    ]},
    {"molecule": "B2", "values": [
      {"measurement": "binding result", "setting": "[4]", "value": "binds"}
    ]},
    {"molecule": "B3", "values": [
      {"measurement": "binding result", "setting": "[3]", "value": "no binding"}
    ]},
    {"molecule": "B4", "values": [
      {"measurement": "binding result", "setting": "[5]", "value": "binds"}
    ]},
    {"molecule": "B5", "values": [
      {"measurement": "binding result", "setting": "[3]", "value": "no binding"}
    ]},
    {"molecule": "B6", "values": [
      {"measurement": "binding result", "setting": "[3]", "value": "no binding"}
    ]}
  ]
}
